Source: patent US20240279344A1 (CDR LIFE, published 2024)
Residue numbers refer to the chain shown, from its start. Values joined by “and” are separate entries in the source; they are usually repeats but may differ in a detail not shown here. Equal entries are not always repeated. One block for each binder: values may come before it.

Biological target: T1, HLA-A2/MAGE-A4 complex, recombinant (HLA-A*02:01 extracellular domain, human b2m, MAGE-A4 peptide 230-239 …) (human, UniProt P04439 25-299 at identity 0.94); P61769 21-119)
T1 construct: also called MAGE-A4 pMHC; MAGE-A4/HLA-A2 complex
Test: SPR, monovalent

- Kd: 4.2 nM
B3: M1117 (bispecific antibody, V domains shown)
VH: EVQLLESGGGSVQPGGSLRLSCTVSGFSLSNYAMSWVRQAPGKGLEWIGIVSSGGTTYYASWAKGRFTISKDTSKNTVYLQMNSLRAEDTASYYCAKDLYYGPTTYSAFALWGQGTSVTVSS
VL: SYELTQPPSVSVSPGQTASITCTADTLSRSYASWYQQKPGQSPVLVIYRDTSRPSGIPERFSGSNSGNTATLTISGTQAMDEADYYCATRPSSGSNFQLFGGGTKLTVL
notes: Variant of humanized M0763; tested in SPR as anti-CD3 Fab x anti-MAGE-A4 scFv bispecific

- Kd: 35.9 nM
B6: M1112 (bispecific antibody, V domains shown)
VH: B3 VH with T105A, A110N
VL: B3 VL
notes: as for B3

- Kd: 0.65 nM
B7: M1124 (bispecific antibody, V domains shown)
VH: B3 VH with A110N
VL: B3 VL with G94A
notes: as for B3

- Kd: 0.75 nM
B8: M1122 (bispecific antibody, V domains shown)
VH: B3 VH with A110N
VL: B3 VL with P91A
notes: as for B3

- Kd: 0.91 nM
B9: M1119 (bispecific antibody, V domains shown)
VH: B3 VH with A110N
VL: B3 VL with A88S
notes: as for B3

- Kd: 0.46 nM
B12: M1129 (bispecific antibody, V domains shown)
VH: B3 VH with A110N
VL: B3 VL with L99A
notes: as for B3

- Kd: 0.89 nM
B15: M1125 (bispecific antibody, V domains shown)
VH: B3 VH with A110N
VL: B3 VL with S95A
notes: as for B3

- Kd: 0.24 nM
B17: M1041 (bispecific antibody, V domains shown)
VH: B3 VH with V2S, L4V, W47Y, A110N
VL: B3 VL
notes: as for B3

- Kd: 1.18 nM
B20: M1114 (bispecific antibody, V domains shown)
VH: B3 VH with S107A, A110N
VL: B3 VL
notes: as for B3

- Kd: 9.65 nM
B21: M1110 (bispecific antibody, V domains shown)
VH: B3 VH with P103A, A110N
VL: B3 VL
notes: as for B3

- Kd: 1.69 nM
B25: M1101 (bispecific antibody, V domains shown)
VH: B3 VH with T56R, T57K, Y58R, A110N
VL: B3 VL
notes: as for B3

- Kd: 1.8 nM
B26: M1090 (bispecific antibody, V domains shown)
VH: B3 VH with A110N
VL: B3 VL with R90K
notes: as for B3

- Kd: 2.13 nM
B27: M1099 (bispecific antibody, V domains shown)
VH: B3 VH with D98N, L99V, Y106Q, A110N
VL: B3 VL with R90S, P91D, S92G
notes: as for B3

- Kd: 11.7 nM
B30: M1109 (bispecific antibody, V domains shown)
VH: B3 VH with G102A, A110N
VL: B3 VL
notes: as for B3

- Kd: 0.4 nM
B33: M1037 (bispecific antibody, V domains shown)
VH: B3 VH with V2S, L4V, W47Y, S107H, A108D, F109L, A110N
VL: B3 VL with R90S, P91D, S92G
notes: as for B3

- Kd: 12.4 nM
B37: M1133 (bispecific antibody, V domains shown)
VH: B3 VH with S53A, A110N
VL: B3 VL
notes: as for B3

- Kd: 5 nM
B40: M1051 (bispecific antibody, V domains shown)
VH: B3 VH with V2S, L4V, W47Y, T56R, T57K, Y58R, A110N
VL: B3 VL with R90S, P91D, S92G
notes: as for B3

- Kd: 4.9 nM
B41: M1036 (bispecific antibody, V domains shown)
VH: B3 VH with V2S, L4V, W47Y, Y106Q, A110N
VL: B3 VL with R90S, P91D, S92G
notes: as for B3

- Kd: 2.2 nM
B44: M1130 (bispecific antibody, V domains shown)
VH: B3 VH with I50A, A110N
VL: B3 VL
notes: as for B3

- Kd: 4.12 nM
B45: M1105 (bispecific antibody, V domains shown)
VH: B3 VH with D98A, A110N
VL: B3 VL
notes: as for B3

- Kd: 4.1 nM
B46: M1132 (bispecific antibody, V domains shown)
VH: B3 VH with S52A, A110N
VL: B3 VL
notes: as for B3

Continued, binder first:

B1: M1116 (bispecific antibody, V domains shown)
VH: B3 VH with F109A, A110N
VL: B3 VL
notes: as for B3
- Kd: 3.88 nM

B2: M1128 (bispecific antibody, V domains shown)
VH: B3 VH with A110N
VL: B3 VL with Q98A
notes: as for B3
- Kd: 1.32 nM

B4: M1087 (bispecific antibody, V domains shown)
VH: B3 VH with A110N
VL: B3 VL with P91D
notes: as for B3
- Kd: 0.82 nM

B5: M1100 (bispecific antibody, V domains shown)
VH: B3 VH with S107H, A108D, F109L, A110N
VL: B3 VL
notes: as for B3
- Kd: 0.66 nM

B10: M1127 (bispecific antibody, V domains shown)
VH: B3 VH with A110N
VL: B3 VL with F97A
notes: as for B3
- Kd: 0.89 nM

B11: M1040 (bispecific antibody, V domains shown)
VH: B3 VH with V2S, L4V, W47Y, S107H, A108Q, F109L, A110N
VL: B3 VL with R90S, P91D, S92G
notes: as for B3
- Kd: 0.45 nM

B13: M1137 (bispecific antibody, V domains shown)
VH: B3 VH with T57A, A110N
VL: B3 VL
notes: as for B3
- Kd: 2.2 nM

B14: M1138 (bispecific antibody, V domains shown)
VH: B3 VH with Y58A, A110N
VL: B3 VL
notes: as for B3
- Kd: 3.1 nM

B16: M1123 (bispecific antibody, V domains shown)
VH: B3 VH with A110N
VL: B3 VL with S93A
notes: as for B3
- Kd: 0.79 nM

B18: M1096 (bispecific antibody, V domains shown)
VH: B3 VH with Y106Q, A110N
VL: B3 VL
notes: as for B3
- Kd: 3.23 nM

B19: M1113 (bispecific antibody, V domains shown)
VH: B3 VH with Y106A, A110N
VL: B3 VL
notes: as for B3
- Kd: 15.3 nM

B22: M1135 (bispecific antibody, V domains shown)
VH: B3 VH with G55A, A110N
VL: B3 VL
notes: as for B3
- Kd: 2.4 nM

B23: M1111 (bispecific antibody, V domains shown)
VH: B3 VH with T104A, A110N
VL: B3 VL
notes: as for B3
- Kd: 0.65 nM

B24: M1098 (bispecific antibody, V domains shown)
VH: B3 VH with D98N, L99V, Y106Q, A110N
VL: B3 VL
notes: as for B3
- Kd: 1.73 nM

B28: M1086 (bispecific antibody, V domains shown)
VH: B3 VH with A110N
VL: B3 VL with R90S
notes: as for B3
- Kd: 7.02 nM

B29: M1120 (bispecific antibody, V domains shown)
VH: B3 VH with A110N
VL: B3 VL with T89A
notes: as for B3
- Kd: 1.21 nM

B31: M1038 (bispecific antibody, V domains shown)
VH: B3 VH with V2S, L4V, W47Y, D98N, L99V, A110N
VL: B3 VL with R90S, P91D, S92G
notes: as for B3
- Kd: 3.6 nM

B32: M1089 (bispecific antibody, V domains shown)
VH: B3 VH with A110N
VL: B3 VL with S92A
notes: as for B3
- Kd: 1.34 nM and 0.79 nM

B34: M1107 (bispecific antibody, V domains shown)
VH: B3 VH with Y100A, A110N
VL: B3 VL
notes: as for B3
- Kd: 1.45 nM

B35: M1134 (bispecific antibody, V domains shown)
VH: B3 VH with G54A, A110N
VL: B3 VL
notes: as for B3
- Kd: 4.2 nM

B36: M1088 (bispecific antibody, V domains shown)
VH: B3 VH with A110N
VL: B3 VL with S92G
notes: as for B3
- Kd: 3.9 nM

B38: M1131 (bispecific antibody, V domains shown)
VH: B3 VH with V51A, A110N
VL: B3 VL
notes: as for B3
- Kd: 3.2 nM

B39: M1108 (bispecific antibody, V domains shown)
VH: B3 VH with Y101A, A110N
VL: B3 VL
notes: as for B3
- Kd: 19 nM

B42: M1115 (bispecific antibody, V domains shown)
VH: B3 VH with A108S, A110N
VL: B3 VL
notes: as for B3
- Kd: 0.48 nM

B43: M1136 (bispecific antibody, V domains shown)
VH: B3 VH with T56A, A110N
VL: B3 VL
notes: as for B3
- Kd: 2.7 nM

B47: M1097 (bispecific antibody, V domains shown)
VH: B3 VH with D98N, L99V, A110N
VL: B3 VL
notes: as for B3
- Kd: 0.99 nM

B48: M1121 (bispecific antibody, V domains shown)
VH: B3 VH with A110N
VL: B3 VL with R90A
notes: as for B3
- Kd: 6.53 nM
